PMC10920896 (2024)

Columns and labels:
[1] = molecular target: T1, biotinylated murine gp130_(P496L) (D1-D6) with C-terminal biotin acceptor peptide and hexa-histidine tag (murine, UniProt Q00560 23-617, P496L, biotin on the C-terminal biotin acceptor peptide (in vitro, BirA)); test: SPR; kinetic fit
[2] = molecular target: T2, biotinylated murine wildtype gp130 (D1-D6) with C-terminal biotin acceptor peptide and hexa-histidine tag (murine, UniProt Q00560 23-617, biotin on the C-terminal biotin acceptor peptide (in vitro, BirA)); test: SPR; kinetic fit
T2 chain: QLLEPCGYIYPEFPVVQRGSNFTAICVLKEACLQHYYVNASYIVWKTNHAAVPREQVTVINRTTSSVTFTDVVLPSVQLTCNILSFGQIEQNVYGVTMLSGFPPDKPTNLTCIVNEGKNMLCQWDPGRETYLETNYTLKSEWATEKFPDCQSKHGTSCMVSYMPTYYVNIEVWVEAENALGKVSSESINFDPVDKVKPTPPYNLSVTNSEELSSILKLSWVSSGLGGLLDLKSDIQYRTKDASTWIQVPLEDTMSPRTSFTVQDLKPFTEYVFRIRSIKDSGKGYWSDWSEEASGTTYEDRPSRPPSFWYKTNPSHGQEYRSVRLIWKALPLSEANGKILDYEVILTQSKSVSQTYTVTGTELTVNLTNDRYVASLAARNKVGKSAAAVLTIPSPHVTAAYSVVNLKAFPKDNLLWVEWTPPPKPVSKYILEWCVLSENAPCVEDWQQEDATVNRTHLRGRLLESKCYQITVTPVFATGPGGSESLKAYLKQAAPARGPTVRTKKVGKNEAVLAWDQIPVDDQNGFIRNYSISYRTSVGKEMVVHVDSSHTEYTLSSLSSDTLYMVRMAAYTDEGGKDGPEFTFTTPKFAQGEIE

[3] = molecular target: T1, biotinylated murine gp130_(P496L) …; test: SPR; equilibrium fit
[4] = molecular target: T2, biotinylated murine wildtype gp130 …; test: SPR; equilibrium fit
[5] = molecular target: T1, biotinylated murine gp130_(P496L) …; test: SPR
[6] = molecular target: T2, biotinylated murine wildtype gp130 …; test: SPR

Kd [1]: 1.8 nM
Kd [2]: 1.45 nM
Kd [3]: 11 nM
Kd [4]: 8.5 nM
koff [5]: 0.0027 s⁻¹
koff [6]: 0.0023 s⁻¹
B1: HypIL-11 (human IL-11 fused by a short linker to domains D2 and D3 of IL-11Rα, single chain) (other)
chain: PPARPVVSCQAADYENFSCTWSPSQISGLPTRYLTSYRKKTVLGADSQRRSPSTGPWPCPQDPLGAARCVVHGAEFWSQYRINVTEVNPLGASTRLLDVSLQSILRPDPPQGLRVESVPGYPRRLRASWTYPASWPCQPHFLLKFRLQYRPAQHPAWSTVEPAGLEEVITDAVAGLPHAVRVSARDFLDAGTWSTWSPEAWGTPSTPGPPPGPPRVSPDPRAELDSTVLLTRSLLADTRQLAAQLRDKFPADGDHNLDSLPTLAMSAGALGALQLPGVLTRLRADLLSYLRHVQWLRRAGGSSLKTLEPELGTLQARLDRLLRRLQLLMSRLALPQPPPDPPAPPLAPPSSAWGGIRAAHAILGGLHLTLDWAVRGLLLLKTRL
